This series can be described thus: soluble on expression in E. coli; label from the status in PepcDB or PDB records.
Turning to “MSLHPEQIHNAINCLCLAATATVAGAMISMGCTTGQRSNSRNSRKSSRSNKSKRSQRSKRRSAQRKKSSSRRKKKLRKEKSRKSQRSKRKKRESERRKKERSKRIARSKKSIKRDRERDSDSSRIKKSGSKRNLEKSNRDDSKRKISKDKNSRRSSQEKSHKYSEPLFIPPVDYDDRDRSLKKKKSVRDNNEEGSRRSSSRDKSKDMKEKSQQSKKDSSRKSKKQQKSEKKKSAEQDNRSDPEDDREAEAPNWRRRRRAKEDQNVKARKTKKVKKNEEVPSKKSSKMSKRSKRSTDENLETAKSSRILKDSEPKSSRSSVTSQKIDSSRGMSKLRADALKRMEPKLLVSPNANSDRFQCNEKGCQKGQCSSEARYAQNVRRSASQKSLRAPKENKLKDGSAKTPKVSSTTTPPVDTMRTPTQEPRSIYIETGKSTYGEASKTSGNNARSVYLADPVSAPKAYSVTPQKSTKTPSERKSEKNLEKKASKKSIKSSRSGIQQREVTKTSSKHSSKHSKAPSSKKSSKKSSKKEQKSRALSNSSSKKSVGSHRNKSNR”, the “soluble on expression in E. coli” value is “not soluble”.

As for “MSLHTAQKTRKGEHKWAAVVGLEIHAQISSNSKLFSGSQVRFSAPPNSLVSFFDASLPGTLPVLNRRCVEAAVMTGLALNCHINKKSLFDRKHYFYADLPAGYQITQQRLPIAVNGSLIYGVCAGKKQSQVIPKTVRIKQIQLEQDSGKSLHDNLRSQTLIDLNRAGVGLLEVVLEPDMSCGEEAATAVRELQLILQALGTSQANMAEGQLRVDANISVHHPGEPLGVRTEVKNLNSIRFLAKAIDYEIQRQINELENGGEILNETRSFHHKLGCTMSMRDKEGKQDYRFMPEPNLPPLVLYDATSLPAGADPQQVINIDQIRETLPELPSVTREKLVQQYGMLLEHSFTLLNEVGLLEFFQNVIKETRAEPKKVTSWVLNTFLGYLKQQNLAVSESPVTPSALAELLDLLDSRTISSSAAKQVFEELWKREGKTPGQIVSEKQLELMQDQGALEQLCHSVMEAHPQVVMDVKNRNPRAINKLIGLVRKATQSRADPVMIKEILEKKLSLEGHHHHHH”, the “soluble on expression in E. coli” value was “soluble”.

As to “MSLHYYLGIDCGGTFIKAAIFDQNGTLQSIARRNIPIISEKPGYAERDMDELWNLCAQVIQKTIRQSSILPQQIKAIGISAQGKGAFFLDKDNKPLGRAILSSDQRAYEIVQCWQKENILQKFYPITLQTLWMGHPVSILRWIKENEPSRYEQIHTILMSHDYLRFCLTEKLYCEETNISESNFYNMREGKYDIQLAKLFGITECIDKLPPIIKSNKIAGYVTSRAAEQSGLVEGIPVVGGLFDVVSTALCADLKDDQHLNVVLGTWSVVSGVTHYIDDNQTIPFVYGKYPEKNKFIIHEASPTSAGNLEWFVNQFNLPNYDDINHEIAKLKPASSSVLFAPFLYGSNAKLGMQAGFYGIQSHHTQIHLLQAIYEGVIFSLMSHLERMQVRFPNASTLRVTGGPAKSEVWMQMLADISGMRLEIPNIEETGCLGAALMAMQAESAVEISQILNIDRKIFLPDKNQYSKYQHKYHRYLKFIEALEGHHHHHH”, the “soluble on expression in E. coli” value was “soluble”.

In the case of “MSLIDARLATEIVVRTVEVMPFDVNVMDAHGVILASSDAARVGEIHAGAQLALARARAVEIDDAMAANLSGARPGINLPLSVRGKVCGVIGVTGEPDAVRGFGELLRVTAELILEREQLTVELRRNARHREEFVLQLLRRTAAAAELEAWADRLGIDMRLAHAAIVCRLSGVDTEPEAGVGQIEAMQSQLAQEWPQLLSAKTSYRELVMFDAVDARAGRDGVLATHAGKRLAALEDTLRKVATQPFSLALGIALDGIDGFERSYQCALATLRVGAARTPQRAAYSYYDFVLPVLLSALSQGWQARQLRLPLTRLLARERRSGALLDTLKAWYAHDGHPSATAQALGIHRNTLDYRLQQIRDATGLDLGAIDDRLWLYIALQTMAGEGHHHHHH”, the “soluble on expression in E. coli” value is “soluble”.

Regarding “MSLIEIESRELADIPVLHAYPVGQKDTPLPCVIFYHGFTSSSLVYSYFAVALAQAGLRVIMPDAPDHGSRFSGDAARRLNQFWQILLQSMQEFTTLRAAIAEENWLLDDRLAVGGASMGAMTALGITARHPTVRCTASMMGSGYFTSLARSLFPPLIPETAAQQNEFNNIVAPLAEWEATNHLEQLSDRPLLLWHGLDDDVVPADESLRLQQALSETGRDKLLTCSWQPGVRHRITPEALDAAVTFFRQHLEGGSHHHHHH”, the “soluble on expression in E. coli” value is given as “soluble”.

As for “MSLIFLDYDGTLVPIIMNPEESYADAGLLSLISDLKERFDTYIVTGRSPEEISRFLPLDINMICYHGACSKINGQIVYNNGSDRFLGVFDRIYEDTRSWVSDFPGLRIYRKNLAVLYHLGLMGADMKPKLRSRIEEIARIFGVETYYGKMIIELRVPGVNKGSAIRSVRGERPAIIAGDDATDEAAFEANDDALTIKVGEGETHAKFHVADYIEMRKILKFIEMLGVQKKQEGHHHHHH”, the “soluble on expression in E. coli” value is “soluble”.

The record behind these values is the DeepSol protein solubility set.
